How the values were obtained:
[1] = target: XC-chemokine receptor 1 (XCR1) on mouse dermal dendritic cells (mouse) (UniProt Q9R0M1); experiment: cell-based or functional assay
[2] = target: XC-chemokine receptor 1 (XCR1) on mouse dermal dendritic cells (mouse) (UniProt Q9R0M1); experiment: flow cytometry of ear skin cells 24 h after laser-assisted delivery of the vaccibody in vivo; staining depended on XCR1 expression (Xcr1-/- mice)

Chain of UniProt Q9R0M1 (Q9R0M1 whole entry): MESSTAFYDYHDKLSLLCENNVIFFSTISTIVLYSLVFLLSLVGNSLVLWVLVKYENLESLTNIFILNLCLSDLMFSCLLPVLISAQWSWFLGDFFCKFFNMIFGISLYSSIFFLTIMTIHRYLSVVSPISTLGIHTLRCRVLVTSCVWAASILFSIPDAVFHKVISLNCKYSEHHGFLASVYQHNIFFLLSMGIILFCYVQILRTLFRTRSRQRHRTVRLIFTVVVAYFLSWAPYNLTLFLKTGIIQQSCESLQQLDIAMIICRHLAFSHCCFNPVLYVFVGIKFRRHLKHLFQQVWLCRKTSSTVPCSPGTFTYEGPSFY

Substance “XCL1-OVA vaccibodies (from UniProt P47993 22-114; P01860 99-377; P01012 2-386)” has an OT-I CD8+ T cell proliferation in ear-draining lymph nodes (CTV dilution), against free OVA on a per molecule basis [1] of 15 times and an OT-II CD4+ T cell proliferation in ear-draining lymph nodes (CTV dilution), against free OVA on a per molecule basis [1] of 3 times.
“XCL1-mCherry vaccibodies (from UniProt P47993 22-114; P01860 99-377)” showed a percent of XCR1+ dermal DCs stained [2] of 15%.
